# US20110064742 (published 2011)
# Bridge positions count the residues as written; N and C are the ends. Square brackets hold non-standard residues; d marks the D form. Phe(4-Cl) = N[C@@H](Cc1ccc(Cl)cc1)C(=O)O; dPhe(4-Cl) = N[C@H](Cc1ccc(Cl)cc1)C(=O)O; Phe(4-F) = N[C@@H](Cc1ccc(F)cc1)C(=O)O; 2Nal = N[C@@H](Cc1ccc2ccccc2c1)C(=O)O; 3Pal = N[C@@H](Cc1cccnc1)C(=O)O
# B1: PRL-2915 (peptide)
# chain: H-[Phe(4-Cl)]C[3Pal][dW]KIC[2Nal]-NH2
# modifications: disulfide 2-7
# SMILES: CC[C@H](C)[C@@H]1NC(=O)[C@H](CCCCN)NC(=O)[C@@H](Cc2c[nH]c3ccccc23)NC(=O)[C@H](Cc2cccnc2)NC(=O)[C@@H](NC(=O)[C@@H](N)Cc2ccc(Cl)cc2)CSSC[C@@H](C(=O)N[C@@H](Cc2ccc3ccccc3c2)C(N)=O)NC1=O
# B2: BIM 23,627 (peptide)
# chain: H-[dPhe(4-Cl)][dC][3Pal]WKVC[2Nal]-NH2
# modifications: disulfide 2-7
# SMILES: CC(C)[C@@H]1NC(=O)[C@H](CCCCN)NC(=O)[C@H](Cc2c[nH]c3ccccc23)NC(=O)[C@H](Cc2cccnc2)NC(=O)[C@H](NC(=O)[C@H](N)Cc2ccc(Cl)cc2)CSSC[C@@H](C(=O)N[C@@H](Cc2ccc3ccccc3c2)C(N)=O)NC1=O
# B3: BIM 23,458 (peptide)
# chain: H-[Phe(4-F)][dC][3Pal][dW]KIC[2Nal]-NH2
# modifications: disulfide 2-7
# SMILES: CC[C@H](C)[C@@H]1NC(=O)[C@H](CCCCN)NC(=O)[C@@H](Cc2c[nH]c3ccccc23)NC(=O)[C@H](Cc2cccnc2)NC(=O)[C@H](NC(=O)[C@@H](N)Cc2ccc(F)cc2)CSSC[C@@H](C(=O)N[C@@H](Cc2ccc3ccccc3c2)C(N)=O)NC1=O
# Molecular target: SSTR-2 (human)
# Sequence (chain, as listed by the source): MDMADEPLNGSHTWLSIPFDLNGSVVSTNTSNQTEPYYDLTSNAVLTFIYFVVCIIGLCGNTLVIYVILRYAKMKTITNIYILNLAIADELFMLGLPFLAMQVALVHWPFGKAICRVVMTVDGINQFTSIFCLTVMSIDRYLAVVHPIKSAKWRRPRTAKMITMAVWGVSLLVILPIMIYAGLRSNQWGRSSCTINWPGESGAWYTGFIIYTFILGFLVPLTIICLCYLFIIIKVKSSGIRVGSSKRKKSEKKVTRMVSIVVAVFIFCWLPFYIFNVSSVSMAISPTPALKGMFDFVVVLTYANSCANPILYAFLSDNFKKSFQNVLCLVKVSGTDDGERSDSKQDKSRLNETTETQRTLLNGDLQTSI
row,Ki [nM],Binder
1,12.6,B1
2,25.1,XCYWKTCX (cyclic disulfide; H-Cpa-cyclo[DCys-Tyr-DTrp-Lys-Thr-Cys]-Nal-NH2) [PRL-2970]
3,158,"Ac-HFIRWF-NH2 [AC-178,335]"

# Molecular target: SSTR-2 (human)
# Remark: another data set of the same source
row,IC50 [nM],Binder
1,6.4,B2
2,31.6,"H-[Phe(4-Cl)]C[3Pal]WKVC[2Nal]-NH2 (cysteine pairing not given here) [BIM 23,454]"
3,27.4,B3
